In data set [1] the target is T1, BACE1 (Cricetulus griseus, UniProt G3IAK4).
T1 construct: endogenous in cells; host or cells: CHO cells overexpressing human APPV717F (CHO / 7PA2)
As to the kind of experiment: BACE1 inhibitor treatment of CHO cells expressing human APPV717F, Western blot of supernatants. The conditions noted are these: 2 μM. The format is cell-based. As to the method: a) Supernatants of CHO cells expressing human APPV717F without or with BACE1 inhibition (BI; 2 μM Merck IV) were compared to synthetic peptides of Aη-β and Aη-α. Increased Aη-α peptide levels were observed upon BACE1 inhibitor treatment with 2D8 and 2E9 antibodies. The fragment with the lowest molecular weight, co-migrating with the synthetic peptide Aη-β, disappeared upon BACE1 inhibition b) After overnight incubation of DIV 16 primary hippocampal neurons without or with the BACE1 inhibitor (BI; 2 μM Merck IV), supernatants were analyzed by Western blotting. […] Total levels of secreted APP (22C11) were unchanged while sAPP-α levels increased. […] Inhibitor treated mice and vehicle treated controls were sacrificed and analyzed after 5, 8 or 24 h. […]
CHO and 7PA2^44 cells were grown in DMEM/F12 (Thermo Scientific) supplemented with 10% fetal calf serum (FCS, Thermo Scientific) plus Penicillin/Streptomycin and NEAA (Non-essential amino acids, PAA) in a humid incubator with 5% CO2 at a temperature of 37° C. […] The protein concentration of lysates was determined using the Uptima BC Assay Protein Quantitation kit (Interchim).
Proteins were separated under denaturing conditions using discontinuous SDS-PAGE. […] CTFs, Aη and Aβ were detected after transfer on Nitrocellulose membranes (Protran BA85; GE Hlealthcare), while other proteins were blotted on PVDF (Immobilon-P, Merck Millipore). […]

Data set [2] deals with hippocampal LTP. As to the kind of experiment: Long-term potentiation (LTP) recordings in acute hippocampal slices (fEPSP at the CA3-CA1 synapse). The format is cell-based, mouse. The conditions noted are these: for fEPSP baseline responses after incubation with SEC fractions: 1/15 dilution, 15 min bath application before LTP induction. How it is done: a) Aη-α and Aη-β peptides were expressed in CHO cells and collected in OPTIMEM medium. […] Higher molecular weight bands are most likely due to posttranslational modification by glycosylation. b-e) SEC fractions enriched for Aη were diluted (1:15) in ACSF for the treatment of hippocampal slices and LTP measurements. Aη-α, Aη-β and control SEC fractions (obtained from CHO cells transfected with the empty vector) were perfused over mouse hippocampal slices for 15 min after obtaining a stable baseline of a fEPSP at the CA3-CA1 synapse.
OPTIMEM was used to collect CHO cell supernatants. SEC was performed with concentrated CHO supernatants using a FPLC (ÄKTApurifier) equipped with a Superdex75 column (GE Healthcare). 1 ml samples were collected with a mobile phase flow rate set at 0.5 ml/min in standard ACSF. Acute hippocampal slices were prepared from Swiss mice (PND20-30) and kept in ACSF^42. Extracellular field excitatory post-synaptic potentials (fEPSPs) were obtained from CA1 pyramidal neurons. After 15 minutes of bath application of SEC fractions^43, LTP was induced by high frequency stimulation (2 pulses of 100 Hz for 1 second with a 20 second inter-pulse interval). LTP was recorded for 60 minutes and statistical analysis was performed on the last 15 minutes of recording compared to baseline fEPSP values.
Transverse hippocampal slices ([…]) were prepared from postnatal day 20-30 Swiss mice following standard procedures^56. Slices were cut in ice-cold oxygenated (95% O2/5% CO2) solution containing 206 mM sucrose, 2.8 mM KCl, 1.25 mM NaH2PO4, 2 mM MgSO4, 1 mM MgCl2, 1 mM CaCl2, 26 mM NaHCO3, 0.4 mM sodium ascorbate, 10 mM glucose (pH 7.4). For recovery (1 h), slices were incubated at 27° C. in oxygenated standard artificial cerebrospinal fluid (ACSF) containing: 124 mM NaCl, 2.8 mM KCl, 1.25 mM NaH2PO4, 2 mM MgSO4, 3.6 mM CaCl2, 26 mM NaHCO3, 0.4 mM sodium ascorbate, 10 mM glucose (pH 7.4)^57. Slices were inspected in a chamber on an upright microscope (Slicescope, Scientifica Ltd) with IR-DIC illumination and were perfused with the oxygenated ACSF at 27±1° C. Field excitatory post-synaptic potentials (fEPSPs) were recorded in the stratum radiatum of the CA1 region using a glass electrode (filled with 1 M NaCl/10 mM HEPES, pH 7.4) and the stimuli (30% of maximal fEPSP) were delivered to the Schaeffer Collateral pathway by a monopolar glass electrode (filled with ACSF). Electrodes were specifically placed just below the surface of the slice to maximize the exposure to circulating peptides. A minimum of 15 minutes stable baseline was first obtained in standard ACSF followed by another 15 minutes of bath application of ACSF containing SEC fractions (CHO, Aη-α or Aη-β; 1/15 dilution, interleaved recordings) using re-circulation with a peristaltic pump at 2.5-3 ml min^−1 while being continuously aerated with 95% oxygen. […] In the continuous presence of the ACSF/SEC solution, LTP was then induced using a high frequency stimulation (HSF) protocol with 2 pulses of 100 Hz for 1 sec with 20 see interval between pulses, and recorded for one hour. Control recordings (no application of SEC fractions) were obtained in an interleaved fashion where ACSF was re-circulated using an identical procedure. For LTP analysis, the first third of the fEPSP slope was calculated in baseline condition (15 minutes prior to induction of LTP and for 60 minutes post-induction). […]

[3] abbreviates: SEC fractions from conditioned media of CHO cells, diluted 1:15 in ACSF, perfused 15 min before HFS, LTP 45-60 min post-HFS.

Entries after “also recorded” stand apart in the source; their conditions may differ.

T1 sequence (G3IAK4 22-501): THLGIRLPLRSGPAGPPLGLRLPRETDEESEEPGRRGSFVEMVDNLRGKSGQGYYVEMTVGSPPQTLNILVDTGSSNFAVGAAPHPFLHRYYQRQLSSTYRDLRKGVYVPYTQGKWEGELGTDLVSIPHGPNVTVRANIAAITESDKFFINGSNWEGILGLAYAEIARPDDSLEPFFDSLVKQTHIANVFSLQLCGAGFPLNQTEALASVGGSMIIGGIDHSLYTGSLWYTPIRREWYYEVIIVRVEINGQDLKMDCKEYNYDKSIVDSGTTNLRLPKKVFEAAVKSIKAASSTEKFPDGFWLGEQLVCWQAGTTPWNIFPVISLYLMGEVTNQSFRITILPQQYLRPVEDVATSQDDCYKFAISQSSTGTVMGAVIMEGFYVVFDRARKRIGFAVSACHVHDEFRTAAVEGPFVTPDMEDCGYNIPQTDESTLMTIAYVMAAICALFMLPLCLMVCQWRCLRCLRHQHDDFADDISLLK

For `C[C@@H](NC(=O)c1cc(C(=O)N[C@@H](Cc2ccccc2)[C@H](O)CNC2CC2)cc(N(C)S(C)(=O)=O)c1)c1ccccc1` [Merck IV], the “lowest molecular weight fragment co-migrating with synthetic Aη-β” value in data set [1] was “disappeared”. In addition, the “Aη-α peptide levels in supernatant” value in data set [1] (2D8 and 2E9 antibodies) is “Increased”. Turning to “AβS26C dimers: AβS26C dimers from JPT Peptide Technologies, Germany [reference compound]”, the “effect on LTP” value in data set [2] (100 nM final in 25 ml re-circulating ACSF, vs interleaved ACSF recordings, 45-60 min post-LTP induction) is reported as “reduced”.

B1: Aη-α: Aη-α-peptide (residues 505-612 of P05067-4), 108 aa, expressed in CHO cells and enriched by SEC (protein, listed as Homo sapiens)
chain: MISEPRISYGNDALMPSLTETKTTVELLPVNGEFSLDDLQPWHSFGADSVPANTENEVEPVDARPAADRGLTTRPGSGLTNIKTEEISEVKMDAEFRHDSGYEVHHQK
B1: the “fEPSP baseline responses after incubation with SEC fractions” value in data set [2] is on record as “No alterations”. Besides, the “effect on LTP” value in data set [2] (setting [3]) is “significantly inhibited”.

B2: Aη-β: Aη-β-peptide (residues 505-596 of P05067-4), 92 aa, expressed in CHO cells and enriched by SEC (protein, listed as Homo sapiens)
chain: MISEPRISYGNDALMPSLTETKTTVELLPVNGEFSLDDLQPWHSFGADSVPANTENEVEPVDARPAADRGLTTRPGSGLTNIKTEEISEVKM
Turning to B2, the “fEPSP baseline responses after incubation with SEC fractions” value in data set [2] was “No alterations”. Also, in data set [2] (setting [3]), the “effect on LTP” value is recorded as “had no effect; also recorded: did not significantly inhibit”.

(Values after patent publication US20190309035A1, “PEPTIDE OR COLLECTION OF PEPTIDES DERIVED FROM AMYLOID PRECURSOR PROTEIN” (Ludwig-Maximilians-Universität München, priority 2015, published 2019).)
